Laboratory results taken from IntAct's records for PubMed 26635368.

B1: Sprouty-related, EVH1 domain-containing protein 1 (Homo sapiens), Q7Z699 (parent)
chain: MSEETATSDNDNSYARVRAVVMTRDDSSGGWLPLGGSGLSSVTVFKVPHQEENGCADFFIRGERLRDKMVVLECMLKKDLIYNKVTPTFHHWKIDDKKFGLTFQSPADARAFDRGIRRAIEDISQGCPESKNEAEGADDLQANEEDSSSSLVKDHLFQQETVVTSEPYRSSNIRPSPFEDLNARRVYMQSQANQITFGQPGLDIQSRSMEYVQRQISKECGSLKSQNRVPLKSIRHVSFQDEDEIVRINPRDILIRRYADYRHPDMWKNDLERDDADSSIQFSKPDSKKSDYLYSCGDETKLSSPKDSVVFKTQPSSLKIKKSKRRKEDGERSRCVYCQERFNHEENVRGKCQDAPDPIKRCIYQVSCMLCAESMLYHCMSDSEGDFSDPCSCDTSDDKFCLRWLALVALSFIVPCMCCYVPLRMCHRCGEACGCCGGKHKAAG

Variants of: B1
Conditions: with nf1_human NF1, P21359
Sequence of nf1_human NF1, P21359 (P21359 whole entry): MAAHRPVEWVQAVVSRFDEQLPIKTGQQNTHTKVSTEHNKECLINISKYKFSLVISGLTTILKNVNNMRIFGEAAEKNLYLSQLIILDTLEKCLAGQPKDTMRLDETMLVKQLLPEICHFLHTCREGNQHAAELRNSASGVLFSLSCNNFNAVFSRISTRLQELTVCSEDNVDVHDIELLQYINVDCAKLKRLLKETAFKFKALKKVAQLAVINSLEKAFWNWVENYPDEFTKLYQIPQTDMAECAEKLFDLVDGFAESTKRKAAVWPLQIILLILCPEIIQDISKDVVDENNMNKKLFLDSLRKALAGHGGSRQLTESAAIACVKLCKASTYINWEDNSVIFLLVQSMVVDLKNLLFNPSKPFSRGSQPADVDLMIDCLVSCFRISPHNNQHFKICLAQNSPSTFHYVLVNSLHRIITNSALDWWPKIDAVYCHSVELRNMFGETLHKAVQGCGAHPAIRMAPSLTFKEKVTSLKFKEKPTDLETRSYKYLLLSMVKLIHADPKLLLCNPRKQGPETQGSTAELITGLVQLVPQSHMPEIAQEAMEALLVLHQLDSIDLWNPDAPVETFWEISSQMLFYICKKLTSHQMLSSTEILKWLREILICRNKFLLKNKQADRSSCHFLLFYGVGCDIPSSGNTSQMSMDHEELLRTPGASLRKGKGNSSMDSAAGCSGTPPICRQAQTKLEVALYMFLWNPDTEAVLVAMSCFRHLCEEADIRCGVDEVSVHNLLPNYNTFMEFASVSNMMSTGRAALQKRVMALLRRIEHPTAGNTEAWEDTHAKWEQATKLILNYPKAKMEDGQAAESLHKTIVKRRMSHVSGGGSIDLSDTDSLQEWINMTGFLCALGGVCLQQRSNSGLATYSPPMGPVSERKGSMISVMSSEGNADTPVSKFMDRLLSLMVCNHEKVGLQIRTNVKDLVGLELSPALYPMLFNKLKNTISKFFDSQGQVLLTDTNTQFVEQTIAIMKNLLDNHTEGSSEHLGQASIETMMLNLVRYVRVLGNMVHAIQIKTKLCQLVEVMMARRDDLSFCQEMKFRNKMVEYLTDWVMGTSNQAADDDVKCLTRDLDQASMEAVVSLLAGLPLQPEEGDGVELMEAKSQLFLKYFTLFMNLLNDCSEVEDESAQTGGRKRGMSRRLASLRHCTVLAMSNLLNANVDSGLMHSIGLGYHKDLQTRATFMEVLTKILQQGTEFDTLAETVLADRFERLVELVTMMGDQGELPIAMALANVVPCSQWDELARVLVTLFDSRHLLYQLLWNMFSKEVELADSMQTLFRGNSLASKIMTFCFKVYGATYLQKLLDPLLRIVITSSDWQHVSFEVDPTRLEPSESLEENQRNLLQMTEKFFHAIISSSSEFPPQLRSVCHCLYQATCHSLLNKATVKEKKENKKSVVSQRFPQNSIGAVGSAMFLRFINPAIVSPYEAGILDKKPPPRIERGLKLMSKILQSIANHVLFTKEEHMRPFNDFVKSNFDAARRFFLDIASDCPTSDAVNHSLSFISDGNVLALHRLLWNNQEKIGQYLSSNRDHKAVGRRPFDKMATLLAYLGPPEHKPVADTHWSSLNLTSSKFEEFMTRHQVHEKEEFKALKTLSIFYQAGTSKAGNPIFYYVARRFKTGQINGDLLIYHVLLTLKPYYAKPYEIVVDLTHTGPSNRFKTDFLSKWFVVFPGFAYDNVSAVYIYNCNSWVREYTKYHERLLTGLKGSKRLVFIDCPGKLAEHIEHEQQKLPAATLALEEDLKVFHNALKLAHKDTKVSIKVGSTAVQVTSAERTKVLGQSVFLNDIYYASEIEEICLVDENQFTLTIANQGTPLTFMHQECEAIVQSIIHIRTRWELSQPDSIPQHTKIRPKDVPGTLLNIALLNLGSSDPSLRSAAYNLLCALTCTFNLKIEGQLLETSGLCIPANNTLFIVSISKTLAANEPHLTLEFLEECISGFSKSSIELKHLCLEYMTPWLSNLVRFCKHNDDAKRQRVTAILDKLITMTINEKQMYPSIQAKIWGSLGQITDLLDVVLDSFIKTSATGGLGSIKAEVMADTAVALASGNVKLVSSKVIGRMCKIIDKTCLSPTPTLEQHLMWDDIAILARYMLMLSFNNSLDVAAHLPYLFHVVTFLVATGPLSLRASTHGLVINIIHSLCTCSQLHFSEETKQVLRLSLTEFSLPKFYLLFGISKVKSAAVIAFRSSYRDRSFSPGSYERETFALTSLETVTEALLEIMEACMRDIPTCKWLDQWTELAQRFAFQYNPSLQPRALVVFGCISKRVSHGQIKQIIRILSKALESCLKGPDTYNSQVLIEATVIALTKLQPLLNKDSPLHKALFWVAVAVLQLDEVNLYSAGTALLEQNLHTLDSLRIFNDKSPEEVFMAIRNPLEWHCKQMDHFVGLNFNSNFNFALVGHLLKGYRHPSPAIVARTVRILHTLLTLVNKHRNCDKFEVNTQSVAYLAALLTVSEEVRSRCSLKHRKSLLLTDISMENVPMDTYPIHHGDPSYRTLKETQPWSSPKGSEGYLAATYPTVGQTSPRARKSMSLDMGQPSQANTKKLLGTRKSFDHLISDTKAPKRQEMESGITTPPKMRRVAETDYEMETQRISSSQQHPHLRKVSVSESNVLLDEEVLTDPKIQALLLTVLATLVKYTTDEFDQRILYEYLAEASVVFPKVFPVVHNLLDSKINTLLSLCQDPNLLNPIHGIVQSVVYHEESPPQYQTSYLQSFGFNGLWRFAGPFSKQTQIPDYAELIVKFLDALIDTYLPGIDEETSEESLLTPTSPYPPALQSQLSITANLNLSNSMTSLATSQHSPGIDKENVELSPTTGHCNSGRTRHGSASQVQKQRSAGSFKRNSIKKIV

Variant | effect of a mutation on the interaction
I116N | decreasing interaction strength
G62R | decreasing interaction strength
T88K | disrupting interaction strength
V44D | disrupting interaction strength
G100D | decreasing interaction strength
V42I | with no effect
L80R | decreasing interaction strength
T102R | decreasing interaction strength
T102M | decreasing interaction strength
T102K | disrupting interaction strength
W31L | disrupting interaction strength
W92R | disrupting interaction strength
C74F | with no effect

Variants of: B1
Conditions: with nf1_human NF1, P21359
Remark: another data set of the same source

Variant | effect of a mutation on the interaction
T102R | disrupting interaction strength
